# Data from patent publication US20170129921A1 (University of California, published 2017).
# Where two headings read alike, the source gives them in different places.
# T1: C5a receptor 1 (human, UniProt P21730 1-350)
# T1 construct: whole, on cells; Also used here for native C5a1 on human macrophages; also called C5a1; CD88
# T1 sequence (looked up): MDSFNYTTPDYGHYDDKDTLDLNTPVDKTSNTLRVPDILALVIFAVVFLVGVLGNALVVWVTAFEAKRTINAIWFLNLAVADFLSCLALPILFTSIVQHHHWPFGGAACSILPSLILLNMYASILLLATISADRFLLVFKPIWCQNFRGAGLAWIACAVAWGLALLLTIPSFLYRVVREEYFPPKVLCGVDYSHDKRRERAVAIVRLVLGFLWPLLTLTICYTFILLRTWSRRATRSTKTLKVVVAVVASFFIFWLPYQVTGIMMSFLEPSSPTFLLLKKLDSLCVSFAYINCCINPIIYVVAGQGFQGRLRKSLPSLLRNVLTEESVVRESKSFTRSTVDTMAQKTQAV
# B1: Peptide P32, Ac-RHYPYWR-OH (peptide)
# peptide: Ac-RHYPYWR-OH
# notes: Synthetic, computationally designed heptapeptide based on the C-terminus of C5a
# B2: Human recombinant C5a (ligand, UniProt P01031 678-751, looked up)
# chain: TLQKKIEEIAAKYKHSVVKKCCYDGACVNNDETCEQRAARISLGPRCIKAFTECCVVASQLRANISHKDMQLGR
# notes: also called native C5a
# B3: Human isolated C5a-des Arg (ligand, UniProt P01031 678-750, looked up)
# chain: TLQKKIEEIAAKYKHSVVKKCCYDGACVNNDETCEQRAARISLGPRCIKAFTECCVVASQLRANISHKDMQLG
# B4: Peptide P59, Ac-LIRLWR-OH (peptide)
# peptide: Ac-LIRLWR-OH
# notes: Synthetic, computationally designed hexapeptide based on the C-terminus of C5a
# Tests used:
# Human C5a receptor 2 [1] = molecular target: T2, Human C5a receptor 2 (human, UniProt Q9P296 1-337); assay: 125I-C5a displacement, SPA on Flp-In CHO-C5a2 membranes
# T2 construct: whole, on cells; also used here for native C5a2 on human monocyte derived macrophages and for the human C5a2 of the DiscoveRx PathHunter kit; also called C5a2; C5L2
# Procedure: P32 and P59 were previously shown to have no activity (either as an agonist or antagonist) up to a concentration of 100 μM, when the library was previously screened for activity at C3aR and C5a1²⁷.
# (§1) C5a2 receptor binding studies were performed using a modification of a previously described scintillation proximity assay (SPA) method⁴⁸. Briefly, C5a2 SPA studies were performed in 96-well white isoplates with clear flat bottoms (Perkin Elmer, Waltham, Mass., USA). SPA beads (200 μg/well) were added, following the addition of various concentrations of competing ligands or buffer (6 pM to 500 μM) in a total volume of 80 μL of assay buffer (50 mM Tris-HCl, pH 7.4, 0.5% BSA, 5 mM MgCl₂, 1 mM CaCl₂). ¹²⁵I-C5a (˜20 pM) (specific activity, 2200 Ci mmol⁻¹) (Perkin Elmer) was added to C5a2 membrane preparations (˜2 μg/well). The final reaction volume per well comprised 20 μL of ligand/buffer, 20 μL of SPA beads, 20 μl of membrane and the assay was initiated by the addition of 20 μL of ¹²⁵I-C5a. The plate was then sealed using TopSeal-A (Perkin Elmer) sealing film and incubated with shaking for 1 h at room temperature. Radioligand binding was then assessed for 30 s/well using a 1450 Microbeta scintillation counter (Perkin Elmer).
# C5a2-Venus [2] = molecular target: T3, C5a2-Venus (UniProt Q9P296 1-337); assay: cell-based or functional assay
# C5a2-Venus [3] = molecular target: T3, C5a2-Venus; assay: cell-based or functional assay; remark: listed apart in the source
# C5a receptor 1 = molecular target: T1, C5a receptor 1; assay: 125I-C5a displacement on C5aR1 membranes
# Human C5a receptor 2 [4] = molecular target: T2, Human C5a receptor 2; assay: 125I-C5a displacement, SPA on Flp-In CHO-C5a2 membranes; remark: listed apart in the source
# Procedure: To further address this issue, C5a2 SPA was used to test for the binding of C3a or C3a-des arg to C5a2.
# as §1
# T3 sequence (Q9P296 whole entry): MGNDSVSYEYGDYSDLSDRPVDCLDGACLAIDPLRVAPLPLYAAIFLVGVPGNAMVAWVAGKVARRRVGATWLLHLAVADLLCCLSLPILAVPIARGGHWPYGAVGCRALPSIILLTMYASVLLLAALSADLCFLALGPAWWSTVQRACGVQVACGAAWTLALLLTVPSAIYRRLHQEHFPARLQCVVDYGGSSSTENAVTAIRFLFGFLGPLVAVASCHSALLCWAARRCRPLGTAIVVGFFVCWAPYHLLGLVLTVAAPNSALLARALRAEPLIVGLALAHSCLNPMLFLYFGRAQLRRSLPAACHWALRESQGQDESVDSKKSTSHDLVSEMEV
# T2 sequence (Q9P296 whole entry): as above
Binder,Ki (Human C5a receptor 2 [1]) [µM],C5a2-β-arrestin 2 BRET Recruitment (% of C5a) (C5a2-Venus [2]),fold higher efficacy of β-arrestin 2 recruitment than the affinity for C5a2 (C5a2-Venus [3]) [fold],Ki (C5a receptor 1) [µM],Ki (Human C5a receptor 2 [4]) [µM]
B1,223,28.8 % of C5a,~37,234,
B2,0.0013,100 % of C5a,,,
B3,,,,,0.0015
B4,48,52.9 % of C5a,~6,466,
